Measured values taken from IntAct's records for PubMed 24332715.

B1: Internalin C (Listeria monocytogenes serotype 1/2a), P71451 (parent)
chain: MLKKNNWLQNAVIAMLVLIVGLCINMGSGTKVQAESIQRPTPINQVFPDPGLANAVKQNLGKQSVTDLVSQKELSGVQNFNGDNSNIQSLAGMQFFTNLKELHLSHNQISDLSPLKDLTKLEELSVNRNRLKNLNGIPSACLSRLFLDNNELRDTDSLIHLKNLEILSIRNNKLKSIVMLGFLSKLEVLDLHGNEITNTGGLTRLKKVNWIDLTGQKCVNEPVKYQPELYITNTVKDPDGRWISPYYISNGGSYVDGCVLWELPVYTDEVSYKFSEYINVGETEAIFDGTVTQPIKN
B2: Dynamin-binding protein (Homo sapiens), Q6XZF7-1 (parent)
chain: MEAGSVVRAIFDFCPSVSEELPLFVGDIIEVLAVVDEFWLLGKKEDVTGQFPSSFVEIVTIPSLKEGERLFVCICEFTSQELDNLPLHRGDLVILDGIPTAGWLQGRSCWGARGFFPSSCVRELCLSSQSRQWHSQSALFQIPEYSMGQARALMGLSAQLDEELDFREGDVITIIGVPEPGWFEGELEGRRGIFPEGFVELLGPLRTVDESVSSGNQDDCIVNGEVDTPVGEEEIGPDEDEEEPGTYGVALYRFQALEPNELDFEVGDKIRILATLEDGWLEGSLKGRTGIFPYRFVKLCPDTRVEETMALPQEGSLARIPETSLDCLENTLGVEEQRHETSDHEAEEPDCIISEAPTSPLGHLTSEYDTDRNSYQDEDTAGGPPRSPGVEWEMPLATDSPTSDPTEVVNGISSQPQVPFHPNLQKSQYYSTVGGSHPHSEQYPDLLPLEARTRDYASLPPKRMYSQLKTLQKPVLPLYRGSSVSASRVVKPRQSSPQLHNLASYTKKHHTSSVYSISERLEMKPGPQAQGLVMEAATHSQGDGSTDLDSKLTQQLIEFEKSLAGPGTEPDKILRHFSIMDFNSEKDIVRGSSKLITEQELPERRKALRPPPPRPCTPVSTSPHLLVDQNLKPAPPLVVRPSRPAPLPPSAQQRTNAVSPKLLSRHRPTCETLEKEGPGHMGRSLDQTSPCPLVLVRIEEMERDLDMYSRAQEELNLMLEEKQDESSRAETLEDLKFCESNIESLNMELQQLREMTLLSSQSSSLVAPSGSVSAENPEQRMLEKRAKVIEELLQTERDYIRDLEMCIERIMVPMQQAQVPNIDFEGLFGNMQMVIKVSKQLLAALEISDAVGPVFLGHRDELEGTYKIYCQNHDEAIALLEIYEKDEKIQKHLQDSLADLKSLYNEWGCTNYINLGSFLIKPVQRVMRYPLLLMELLNSTPESHPDKVPLTNAVLAVKEINVNINEYKRRKDLVLKYRKGDEDSLMEKISKLNIHSIIKKSNRVSSHLKHLTGFAPQIKDEVFEETEKNFRMQERLIKSFIRDLSLYLQHIRESACVKVVAAVSMWDVCMERGHRDLEQFERVHRYISDQLFTNFKERTERLVISPLNQLLSMFTGPHKLVQKRFDKLLDFYNCTERAEKLKDKKTLEELQSARNNYEALNAQLLDELPKFHQYAQGLFTNCVHGYAEAHCDFVHQALEQLKPLLSLLKVAGREGNLIAIFHEEHSRVLQQLQVFTFFPESLPATKKPFERKTIDRQSARKPLLGLPSYMLQSEELRASLLARYPPEKLFQAERNFNAAQDLDVSLLEGDLVGVIKKKDPMGSQNRWLIDNGVTKGFVYSSFLKPYNPRRSHSDASVGSHSSTESEHGSSSPRFPRQNSGSTLTFNPSSMAVSFTSGSCQKQPQDASPPPKECDQGTLSASLNPSNSESSPSRCPSDPDSTSQPRSGDSADVARDVKQPTATPRSYRNFRHPEIVGYSVPGRNGQSQDLVKGCARTAQAPEDRSTEPDGSEAEGNQVYFAVYTFKARNPNELSVSANQKLKILEFKDVTGNTEWWLAEVNGKKGYVPSNYIRKTEYT

Variants of: B1
Details: with DNMBP
In the case of F146A, the “effect of a mutation on the interaction” value is reported as “decreasing interaction strength”.

Variants of: B2
Details: with inlc_lismg inlC
In the case of V1521R, the “effect of a mutation on the interaction” value is reported as “decreasing interaction strength”. N1569R was tested, and the “effect of a mutation on the interaction” value was “decreasing interaction strength”.
